# Measured values reported in patent US12679878B2, “CRF2 receptor agonists and their use in therapy” (SANOFI, priority 2020, dated 2026).
# Starred links: 1 amine or outer side, 2 acyl side, 3 side chain; linkers in the order of their positions; H or OH if unused. Non-standard residues stand in square brackets, D forms with d. Groups on a side chain read outwards from the residue. No end group written: not given here. *: point of attachment. C18 diacid = O=C(O)CCCCCCCCCCCCCCCCC(=O)*; γGlu = O=C(O)[C@H](CCC(=O)[*:2])N[*:1]; Palmitoyl = CCCCCCCCCCCCCCCC(=O)*; AEEA = NCCOCCOCC(=O)O; Aib = CC(C)(N)C(=O)O
# B1: SEQ ID NO: 120 (peptide)
# peptide: IVLSLDVPIKLK([AEEA-AEEA-γGlu-C18 diacid])QILLKQERQKKQREQAEKNKQILEQV-NH2
# modifications: N-terminus assumed
# SMILES: CC[C@H](C)[C@H](N)C(=O)N[C@H](C(=O)N[C@@H](CC(C)C)C(=O)N[C@@H](CO)C(=O)N[C@@H](CC(C)C)C(=O)N[C@@H](CC(=O)O)C(=O)N[C@H](C(=O)N1CCC[C@H]1C(=O)N[C@H](C(=O)N[C@@H](CCCCN)C(=O)N[C@@H](CC(C)C)C(=O)N[C@@H](CCCCNC(=O)COCCOCCNC(=O)COCCOCCNC(=O)CC[C@H](NC(=O)CCCCCCCCCCCCCCCCC(=O)O)C(=O)O)C(=O)N[C@@H](CCC(N)=O)C(=O)N[C@H](C(=O)N[C@@H](CC(C)C)C(=O)N[C@@H](CC(C)C)C(=O)N[C@@H](CCCCN)C(=O)N[C@@H](CCC(N)=O)C(=O)N[C@@H](CCC(=O)O)C(=O)N[C@@H](CCCNC(=N)N)C(=O)N[C@@H](CCC(N)=O)C(=O)N[C@@H](CCCCN)C(=O)N[C@@H](CCCCN)C(=O)N[C@@H](CCC(N)=O)C(=O)N[C@@H](CCCNC(=N)N)C(=O)N[C@@H](CCC(=O)O)C(=O)N[C@@H](CCC(N)=O)C(=O)N[C@@H](C)C(=O)N[C@@H](CCC(=O)O)C(=O)N[C@@H](CCCCN)C(=O)N[C@@H](CC(N)=O)C(=O)N[C@@H](CCCCN)C(=O)N[C@@H](CCC(N)=O)C(=O)N[C@H](C(=O)N[C@@H](CC(C)C)C(=O)N[C@@H](CCC(=O)O)C(=O)N[C@@H](CCC(N)=O)C(=O)N[C@H](C(N)=O)C(C)C)[C@@H](C)CC)[C@@H](C)CC)[C@@H](C)CC)C(C)C)C(C)C
# B2: SEQ ID NO: 119 (peptide)
# peptide: IVLSLDVPIKLK([AEEA-AEEA-γGlu-C18 diacid])QILLKQERQKK[Aib]RQKAEKNKQILAQV-NH2
# modifications: N-terminus assumed
# SMILES: CC[C@H](C)[C@H](N)C(=O)N[C@H](C(=O)N[C@@H](CC(C)C)C(=O)N[C@@H](CO)C(=O)N[C@@H](CC(C)C)C(=O)N[C@@H](CC(=O)O)C(=O)N[C@H](C(=O)N1CCC[C@H]1C(=O)N[C@H](C(=O)N[C@@H](CCCCN)C(=O)N[C@@H](CC(C)C)C(=O)N[C@@H](CCCCNC(=O)COCCOCCNC(=O)COCCOCCNC(=O)CC[C@H](NC(=O)CCCCCCCCCCCCCCCCC(=O)O)C(=O)O)C(=O)N[C@@H](CCC(N)=O)C(=O)N[C@H](C(=O)N[C@@H](CC(C)C)C(=O)N[C@@H](CC(C)C)C(=O)N[C@@H](CCCCN)C(=O)N[C@@H](CCC(N)=O)C(=O)N[C@@H](CCC(=O)O)C(=O)N[C@@H](CCCNC(=N)N)C(=O)N[C@@H](CCC(N)=O)C(=O)N[C@@H](CCCCN)C(=O)N[C@@H](CCCCN)C(=O)NC(C)(C)C(=O)N[C@@H](CCCNC(=N)N)C(=O)N[C@@H](CCC(N)=O)C(=O)N[C@@H](CCCCN)C(=O)N[C@@H](C)C(=O)N[C@@H](CCC(=O)O)C(=O)N[C@@H](CCCCN)C(=O)N[C@@H](CC(N)=O)C(=O)N[C@@H](CCCCN)C(=O)N[C@@H](CCC(N)=O)C(=O)N[C@H](C(=O)N[C@@H](CC(C)C)C(=O)N[C@@H](C)C(=O)N[C@@H](CCC(N)=O)C(=O)N[C@H](C(N)=O)C(C)C)[C@@H](C)CC)[C@@H](C)CC)[C@@H](C)CC)C(C)C)C(C)C
# B3: SEQ ID NO: 118 (peptide)
# peptide: IVLSLD[dV]PIKLK([AEEA-AEEA-γGlu-C18 diacid])QILLKQERQK[Aib]QRQKAEKNKQILAQV-NH2
# modifications: N-terminus assumed
# SMILES: CC[C@H](C)[C@H](N)C(=O)N[C@H](C(=O)N[C@@H](CC(C)C)C(=O)N[C@@H](CO)C(=O)N[C@@H](CC(C)C)C(=O)N[C@@H](CC(=O)O)C(=O)N[C@@H](C(=O)N1CCC[C@H]1C(=O)N[C@H](C(=O)N[C@@H](CCCCN)C(=O)N[C@@H](CC(C)C)C(=O)N[C@@H](CCCCNC(=O)COCCOCCNC(=O)COCCOCCNC(=O)CC[C@H](NC(=O)CCCCCCCCCCCCCCCCC(=O)O)C(=O)O)C(=O)N[C@@H](CCC(N)=O)C(=O)N[C@H](C(=O)N[C@@H](CC(C)C)C(=O)N[C@@H](CC(C)C)C(=O)N[C@@H](CCCCN)C(=O)N[C@@H](CCC(N)=O)C(=O)N[C@@H](CCC(=O)O)C(=O)N[C@@H](CCCNC(=N)N)C(=O)N[C@@H](CCC(N)=O)C(=O)N[C@@H](CCCCN)C(=O)NC(C)(C)C(=O)N[C@@H](CCC(N)=O)C(=O)N[C@@H](CCCNC(=N)N)C(=O)N[C@@H](CCC(N)=O)C(=O)N[C@@H](CCCCN)C(=O)N[C@@H](C)C(=O)N[C@@H](CCC(=O)O)C(=O)N[C@@H](CCCCN)C(=O)N[C@@H](CC(N)=O)C(=O)N[C@@H](CCCCN)C(=O)N[C@@H](CCC(N)=O)C(=O)N[C@H](C(=O)N[C@@H](CC(C)C)C(=O)N[C@@H](C)C(=O)N[C@@H](CCC(N)=O)C(=O)N[C@H](C(N)=O)C(C)C)[C@@H](C)CC)[C@@H](C)CC)[C@@H](C)CC)C(C)C)C(C)C
# B4: SEQ ID NO: 116 (peptide)
# peptide: IVLSLDVPIKLK([AEEA-AEEA-γGlu-C18 diacid])QILLKQERQK[Aib]QREKAEKNKQILAQV-NH2
# modifications: N-terminus assumed
# SMILES: CC[C@H](C)[C@H](N)C(=O)N[C@H](C(=O)N[C@@H](CC(C)C)C(=O)N[C@@H](CO)C(=O)N[C@@H](CC(C)C)C(=O)N[C@@H](CC(=O)O)C(=O)N[C@H](C(=O)N1CCC[C@H]1C(=O)N[C@H](C(=O)N[C@@H](CCCCN)C(=O)N[C@@H](CC(C)C)C(=O)N[C@@H](CCCCNC(=O)COCCOCCNC(=O)COCCOCCNC(=O)CC[C@H](NC(=O)CCCCCCCCCCCCCCCCC(=O)O)C(=O)O)C(=O)N[C@@H](CCC(N)=O)C(=O)N[C@H](C(=O)N[C@@H](CC(C)C)C(=O)N[C@@H](CC(C)C)C(=O)N[C@@H](CCCCN)C(=O)N[C@@H](CCC(N)=O)C(=O)N[C@@H](CCC(=O)O)C(=O)N[C@@H](CCCNC(=N)N)C(=O)N[C@@H](CCC(N)=O)C(=O)N[C@@H](CCCCN)C(=O)NC(C)(C)C(=O)N[C@@H](CCC(N)=O)C(=O)N[C@@H](CCCNC(=N)N)C(=O)N[C@@H](CCC(=O)O)C(=O)N[C@@H](CCCCN)C(=O)N[C@@H](C)C(=O)N[C@@H](CCC(=O)O)C(=O)N[C@@H](CCCCN)C(=O)N[C@@H](CC(N)=O)C(=O)N[C@@H](CCCCN)C(=O)N[C@@H](CCC(N)=O)C(=O)N[C@H](C(=O)N[C@@H](CC(C)C)C(=O)N[C@@H](C)C(=O)N[C@@H](CCC(N)=O)C(=O)N[C@H](C(N)=O)C(C)C)[C@@H](C)CC)[C@@H](C)CC)[C@@H](C)CC)C(C)C)C(C)C
# B5: SEQ ID NO: 117 (peptide)
# peptide: IVLSLDVPIKLK([AEEA-AEEA-γGlu-C18 diacid])QILLKQERQK[Aib]QRQQAEKNKQILAQV-NH2
# modifications: N-terminus assumed
# SMILES: CC[C@H](C)[C@H](N)C(=O)N[C@H](C(=O)N[C@@H](CC(C)C)C(=O)N[C@@H](CO)C(=O)N[C@@H](CC(C)C)C(=O)N[C@@H](CC(=O)O)C(=O)N[C@H](C(=O)N1CCC[C@H]1C(=O)N[C@H](C(=O)N[C@@H](CCCCN)C(=O)N[C@@H](CC(C)C)C(=O)N[C@@H](CCCCNC(=O)COCCOCCNC(=O)COCCOCCNC(=O)CC[C@H](NC(=O)CCCCCCCCCCCCCCCCC(=O)O)C(=O)O)C(=O)N[C@@H](CCC(N)=O)C(=O)N[C@H](C(=O)N[C@@H](CC(C)C)C(=O)N[C@@H](CC(C)C)C(=O)N[C@@H](CCCCN)C(=O)N[C@@H](CCC(N)=O)C(=O)N[C@@H](CCC(=O)O)C(=O)N[C@@H](CCCNC(=N)N)C(=O)N[C@@H](CCC(N)=O)C(=O)N[C@@H](CCCCN)C(=O)NC(C)(C)C(=O)N[C@@H](CCC(N)=O)C(=O)N[C@@H](CCCNC(=N)N)C(=O)N[C@@H](CCC(N)=O)C(=O)N[C@@H](CCC(N)=O)C(=O)N[C@@H](C)C(=O)N[C@@H](CCC(=O)O)C(=O)N[C@@H](CCCCN)C(=O)N[C@@H](CC(N)=O)C(=O)N[C@@H](CCCCN)C(=O)N[C@@H](CCC(N)=O)C(=O)N[C@H](C(=O)N[C@@H](CC(C)C)C(=O)N[C@@H](C)C(=O)N[C@@H](CCC(N)=O)C(=O)N[C@H](C(N)=O)C(C)C)[C@@H](C)CC)[C@@H](C)CC)[C@@H](C)CC)C(C)C)C(C)C
# B6: SEQ ID NO: 11 (peptide)
# peptide: FTLSLDVPTKIK([γGlu-Palmitoyl])QKLLKQEKQKKQRQKAKTNAQILAQV-NH2
# modifications: N-terminus assumed
# SMILES: CCCCCCCCCCCCCCCC(=O)N[C@@H](CCC(=O)NCCCC[C@H](NC(=O)[C@@H](NC(=O)[C@H](CCCCN)NC(=O)[C@@H](NC(=O)[C@@H]1CCCN1C(=O)[C@@H](NC(=O)[C@H](CC(=O)O)NC(=O)[C@H](CC(C)C)NC(=O)[C@H](CO)NC(=O)[C@H](CC(C)C)NC(=O)[C@@H](NC(=O)[C@@H](N)Cc1ccccc1)[C@@H](C)O)C(C)C)[C@@H](C)O)[C@@H](C)CC)C(=O)N[C@@H](CCC(N)=O)C(=O)N[C@@H](CCCCN)C(=O)N[C@@H](CC(C)C)C(=O)N[C@@H](CC(C)C)C(=O)N[C@@H](CCCCN)C(=O)N[C@@H](CCC(N)=O)C(=O)N[C@@H](CCC(=O)O)C(=O)N[C@@H](CCCCN)C(=O)N[C@@H](CCC(N)=O)C(=O)N[C@@H](CCCCN)C(=O)N[C@@H](CCCCN)C(=O)N[C@@H](CCC(N)=O)C(=O)N[C@@H](CCCNC(=N)N)C(=O)N[C@@H](CCC(N)=O)C(=O)N[C@@H](CCCCN)C(=O)N[C@@H](C)C(=O)N[C@@H](CCCCN)C(=O)N[C@H](C(=O)N[C@@H](CC(N)=O)C(=O)N[C@@H](C)C(=O)N[C@@H](CCC(N)=O)C(=O)N[C@H](C(=O)N[C@@H](CC(C)C)C(=O)N[C@@H](C)C(=O)N[C@@H](CCC(N)=O)C(=O)N[C@H](C(N)=O)C(C)C)[C@@H](C)CC)[C@@H](C)O)C(=O)O
# Target: human corticotropin-releasing factor 2α (CRF2 α receptor) (human), Q13324
# Sequence (Q13324 20-411): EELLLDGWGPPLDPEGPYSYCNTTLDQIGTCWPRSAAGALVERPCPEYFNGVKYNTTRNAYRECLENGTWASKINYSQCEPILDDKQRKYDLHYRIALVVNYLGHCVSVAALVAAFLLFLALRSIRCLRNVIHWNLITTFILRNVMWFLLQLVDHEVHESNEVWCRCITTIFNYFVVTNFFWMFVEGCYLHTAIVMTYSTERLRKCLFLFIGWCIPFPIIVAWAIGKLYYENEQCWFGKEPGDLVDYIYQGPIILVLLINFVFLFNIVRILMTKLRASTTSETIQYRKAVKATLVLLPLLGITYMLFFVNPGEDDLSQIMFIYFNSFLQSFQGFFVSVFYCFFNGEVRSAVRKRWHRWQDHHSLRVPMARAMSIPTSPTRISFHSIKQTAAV
# Assay: cell-based or functional assay
"EC50 [nM], 0% HSA [nM]","EC50 [nM], 0.1% HSA [nM]",Binder
1.27,61.1,B1
0.13,4.97,B2
0.04,2.13,B3
0.7,,B4
0.11,,B5
0.02,,B6
